Data as given in patent publication US4793986A, “Macromolecular platinum antitumor compounds” (Johnson Matthey, Inc., priority 1987, dated 1988).

Assays:
[1] = cited from earlier work
L1210 = assay: Lifespan summary, L1210; type: in vivo, mice; conditions: i.p.; for AWG D.5: day 5
L1210 Leukemia = assay: Effect on L1210 Leukemia; type: in vivo, mice; conditions: i.p.; for AWG D.5: day 5
Pt release = type: physicochemical; parameters: unit not given here
SW1271 = assay: In-vitro cytotoxicity testing, SW1271; type: cell-based; conditions: SW1271 (human lung)
Excerpt: (§1) IN-VITRO CY[…]^1
(§2) IC50 (ug/ml)/Active Dilution

A549 = assay: In-vitro cytotoxicity testing, A549; type: cell-based; conditions: A549 (human lung)
Excerpt: IN-VITRO CYTOTOXICITY TESTING^1
as §2

HCT-116 = assay: In-vitro cytotoxicity testing, HCT-116; type: cell-based; conditions: HCT-116 (human colon)
Excerpt: as §1, §2

B16-F10 = assay: In-vitro cytotoxicity testing, B16-F10; type: cell-based; conditions: B16-F10 (murine melanoma)
Excerpt: as §1, §2
B16F10 -- Murine melanoma

[2] = 4 mg/kg/dose, Q01DX1;1, vehicle BS
[3] = 6 mg/kg/dose, Q01DX1;1, vehicle BS
[4] = 8 mg/kg/dose, Q01DX1;1, vehicle BS
[5] = 10 mg/kg/dose, Q01DX1;1, vehicle BS
[6] = pH 5.80, 1 h, 0.1M phosphate buffer
[7] = pH 5.80, 24 h, 0.1M phosphate buffer
[8] = pH 5.80, 48 h, 0.1M phosphate buffer
[9] = pH 7.00, 1 h, 0.1M phosphate buffer
[10] = pH 7.00, 24 h, 0.1M phosphate buffer
[11] = pH 7.00, 48 h, 0.1M phosphate buffer
[12] = pH 8.00, 1 h, 0.1M phosphate buffer
[13] = pH 8.00, 24 h, 0.1M phosphate buffer
[14] = pH 8.00, 48 h, 0.1M phosphate buffer
[15] = 160 mg/kg/dose, Q01DX1;1, H2O + tween 80
[16] = 240 mg/kg/dose, Q01DX1;1, H2O + tween 80
[17] = 320 mg/kg/dose, Q01DX1;1, H2O + tween 80
[18] = 400 mg/kg/dose, Q01DX1;1, H2O + tween 80
[19] = 80 mg/kg/dose, Q01DX1;1, H2O + tween 80
[20] = 120 mg/kg/dose, Q01DX1;1, H2O + tween 80

## N.N.[Cl][Pt][Cl] [Cisplatin, cis-diamino dichloroplatinum(II)]
[1]; cisplatin as a drug
  nausea and vomiting: nausea and vomiting which cause extreme discomfort for the patient
L1210; [2]
  % T/C: 129%
  Med. S.T.: 9.0
  AWG D.5: -0.7 Gm
L1210; [3]
  % T/C: 157%
  Med. S.T.: 11.0
  AWG D.5: -2.1 Gm
L1210; [4]
  % T/C: 171%
  Med. S.T.: 12.0
  AWG D.5: -2.8 Gm
L1210; [5]
  % T/C: 171%
  Med. S.T.: 12.0
  AWG D.5: -3.3 Gm
L1210 Leukemia; [2]
  % T/C: 129%
  Med. S.T.: 9.0
  AWG D.5: 0.2 Gm
L1210 Leukemia; [3]
  % T/C: 157%
  Med. S.T.: 11.0
  AWG D.5: -0.9 Gm
L1210 Leukemia; [4]
  % T/C: 136%
  Med. S.T.: 9.5
  AWG D.5: -1.4 Gm
L1210 Leukemia; [5]
  % T/C: 171%
  Med. S.T.: 12.0
  AWG D.5: -2.4 Gm

## N.N.O=C([O-])C1(C(=O)[O-])CCC1.[Pt+2] [carboplatin]
[1]; carboplatin, relative to cisplatin
  nephrotoxicity: decreased nephrotoxicity

## Pt-Isoserinato Dextran [Example 5]
Pt release; [6]
  Pt release: 9.5
Pt release; [7]
  Pt release: 72.5
Pt release; [8]
  Pt release: 88.5
Pt release; pH 5.80, 120 h, 0.1M phosphate buffer
  Pt release: 98.7
Pt release; [9]
  Pt release: 8.8
Pt release; [10]
  Pt release: 61.1
Pt release; [11]
  Pt release: 76.3
Pt release; pH 7.00, 120 h, 0.1M phosphate buffer
  Pt release: 89.3
Pt release; [12]
  Pt release: 8.8
Pt release; [13]
  Pt release: 55.7
Pt release; [14]
  Pt release: 66.9
Pt release; pH 8.00, 120 h, 0.1M phosphate buffer
  Pt release: 76.2

## Pt-Malonato Dextran (Method A) [Example 1]
SW1271
  IC50: 408 µg/mL
Pt release; pH 5.60, 2 h
  Pt release: 0.6
Pt release; pH 5.60, 24 h
  Pt release: 4.3
Pt release; pH 5.60, 48 h
  Pt release: 6.8
Pt release; pH 5.60, 72 h
  Pt release: 8.2
Pt release; pH 6.80, 2 h
  Pt release: 0.5
Pt release; pH 6.80, 24 h
  Pt release: 6.6
Pt release; pH 6.80, 48 h
  Pt release: 10.2
Pt release; pH 6.80, 72 h
  Pt release: 13.3
Pt release; pH 8.30, 2 h
  Pt release: 1.3
Pt release; pH 8.30, 24 h
  Pt release: 7.2
Pt release; pH 8.30, 48 h
  Pt release: 10.3
Pt release; pH 8.30, 72 h
  Pt release: 13.8
A549
  IC50: > 500 µg/mL
HCT-116
  IC50: > 500 µg/mL
B16-F10
  IC50: 426 µg/mL

## Pt-Malonato Dextran (Method B) [Example 2]
SW1271
  IC50: > 500 µg/mL
L1210; [15]
  % T/C: 107%
  Med. S.T.: 7.5
L1210; [16]
  % T/C: 121%
  Med. S.T.: 8.5
L1210; [17]
  % T/C: 114%
  Med. S.T.: 8.0
L1210; [18]
  % T/C: 143%
  Med. S.T.: 10.0
HCT-116
  IC50: 430 µg/mL
L1210 Leukemia; [19]
  % T/C: 100%
  Med. S.T.: 7.0
L1210 Leukemia; [20]
  % T/C: 100%
  Med. S.T.: 7.0
L1210 Leukemia; [15]
  % T/C: 107%
  Med. S.T.: 7.5
B16-F10
  IC50: 332 µg/mL

## Pt-Malonato Inulin [Example 7]
Pt release; pH 5.42, 1 h
  Pt release: 4.7
Pt release; pH 5.42, 24 h
  Pt release: 18.1
Pt release; pH 5.42, 48 h
  Pt release: 20.5
Pt release; pH 5.42, 72 h
  Pt release: 26.2
Pt release; pH 5.42, 144 h
  Pt release: 27.5
Pt release; pH 6.76, 1 h
  Pt release: 3.1
Pt release; pH 6.76, 24 h
  Pt release: 15.2
Pt release; pH 6.76, 48 h
  Pt release: 18.3
Pt release; pH 6.76, 72 h
  Pt release: 20.0
Pt release; pH 6.76, 144 h
  Pt release: 22.7
Pt release; pH 7.86, 1 h
  Pt release: 4.9
Pt release; pH 7.86, 24 h
  Pt release: 17.8
Pt release; pH 7.86, 48 h
  Pt release: 21.0
Pt release; pH 7.86, 72 h
  Pt release: 21.9
Pt release; pH 7.86, 144 h
  Pt release: 28.8

## Pt-Malonato Xylan [Example 9]
Pt release; [6]
  Pt release: 3.1
Pt release; [7]
  Pt release: 22.6
Pt release; [8]
  Pt release: 29.8
Pt release; pH 5.80, 72 h, 0.1M phosphate buffer
  Pt release: 32.8
Pt release; pH 5.80, 144 h, 0.1M phosphate buffer
  Pt release: 41.9
Pt release; [9]
  Pt release: 2.1
Pt release; [10]
  Pt release: 17.9
Pt release; [11]
  Pt release: 23.7
Pt release; pH 7.00, 72 h, 0.1M phosphate buffer
  Pt release: 27.5
Pt release; pH 7.00, 144 h, 0.1M phosphate buffer
  Pt release: 40.9
Pt release; [12]
  Pt release: 1.7
Pt release; [13]
  Pt release: 18.9
Pt release; [14]
  Pt release: 25.4
Pt release; pH 8.00, 72 h, 0.1M phosphate buffer
  Pt release: 28.2
Pt release; pH 8.00, 144 h, 0.1M phosphate buffer
  Pt release: 35.8

## Pt-malonato dextran [Pt-malonato dextran of Example 3]
Pt release; pH 5.50, 1 h
  Pt release: 0.6
Pt release; pH 5.50, 16 h
  Pt release: 5.2
Pt release; pH 5.50, 40 h
  Pt release: 6.4
Pt release; pH 5.50, 64 h
  Pt release: 7.6
Pt release; pH 7.10, 1 h
  Pt release: 0.6
Pt release; pH 7.10, 16 h
  Pt release: 4.2
Pt release; pH 7.10, 40 h
  Pt release: 4.9
Pt release; pH 7.10, 64 h
  Pt release: 6.1
Pt release; pH 8.20, 1 h
  Pt release: 0.7
Pt release; pH 8.20, 16 h
  Pt release: 4.2
Pt release; pH 8.20, 40 h
  Pt release: 5.1
Pt release; pH 8.20, 64 h
  Pt release: 6.4
